Ends that are not written are not given here.
How the values were obtained:
Experiment in all cases: fluorescence polarisation
[1] = biological target: Sgo1 peptide (residues 446–466) bearing fluorescein (UniProt Q5FBB7)
recombinant HP1α = recombinant HP1α (UniProt P45973 1-191)
[2] = biological target: chemically synthesized full-length heterochromatin protein 1α without PTMs (21) (UniProt P45973 1-191)
chemically synthesized full-length heterochromatin protein 1α without PTMs (21), sequence (P45973 whole entry): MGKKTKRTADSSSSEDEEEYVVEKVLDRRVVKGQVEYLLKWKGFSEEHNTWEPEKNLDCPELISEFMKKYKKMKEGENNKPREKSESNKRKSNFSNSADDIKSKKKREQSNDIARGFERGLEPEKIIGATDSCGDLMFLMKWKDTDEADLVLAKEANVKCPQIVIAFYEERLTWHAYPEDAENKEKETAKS

recombinant HP1α, sequence (P45973 whole entry): as above

Row | Kd [1] [nM] | Kd (recombinant HP1α) [nM] | Kd [2] [nM] | Molecule
1 | 1870 |  |  | chemically synthesized HP1α ubiquitinated at K154 (21f) (from UniProt P45973 1-191; P0CG48 1-76)
2 |  | 510 | 470 | NVSLYPVVKIRRLSLSPKKNK (peptide, UniProt Q5FBB7 446-466, looked up, also: fluorescein, position not given here) [Sgo1 peptide (residues 446–466) bearing fluorescein]

From publication PMC8872386 (Chemical Science, 2021)
